Test results: publication PMC5855951

Target: METTL3;METTL14 (human?;human?, UniProt Q86U44;Q9HCE5 1-580;1-456, |)
Experiment: filter binding

Sequence of METTL3;METTL14 (Q86U44 whole entry, chain 1 of 2): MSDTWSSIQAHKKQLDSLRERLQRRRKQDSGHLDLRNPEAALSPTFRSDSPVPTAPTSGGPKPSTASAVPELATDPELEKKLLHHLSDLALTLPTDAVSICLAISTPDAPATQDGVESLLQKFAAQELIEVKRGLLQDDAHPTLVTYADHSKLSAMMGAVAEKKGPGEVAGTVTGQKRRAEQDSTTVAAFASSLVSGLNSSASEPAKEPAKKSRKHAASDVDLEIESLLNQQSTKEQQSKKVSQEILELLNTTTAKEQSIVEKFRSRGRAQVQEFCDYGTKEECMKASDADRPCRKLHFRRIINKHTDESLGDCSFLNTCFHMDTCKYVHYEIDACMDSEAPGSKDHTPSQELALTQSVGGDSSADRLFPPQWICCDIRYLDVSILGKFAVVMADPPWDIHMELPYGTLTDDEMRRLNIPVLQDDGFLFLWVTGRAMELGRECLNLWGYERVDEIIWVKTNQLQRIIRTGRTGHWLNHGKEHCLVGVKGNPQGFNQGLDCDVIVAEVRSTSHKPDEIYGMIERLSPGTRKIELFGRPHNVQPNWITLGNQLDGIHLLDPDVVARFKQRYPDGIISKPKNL
Sequence of METTL3;METTL14 (Q9HCE5 whole entry, chain 2 of 2): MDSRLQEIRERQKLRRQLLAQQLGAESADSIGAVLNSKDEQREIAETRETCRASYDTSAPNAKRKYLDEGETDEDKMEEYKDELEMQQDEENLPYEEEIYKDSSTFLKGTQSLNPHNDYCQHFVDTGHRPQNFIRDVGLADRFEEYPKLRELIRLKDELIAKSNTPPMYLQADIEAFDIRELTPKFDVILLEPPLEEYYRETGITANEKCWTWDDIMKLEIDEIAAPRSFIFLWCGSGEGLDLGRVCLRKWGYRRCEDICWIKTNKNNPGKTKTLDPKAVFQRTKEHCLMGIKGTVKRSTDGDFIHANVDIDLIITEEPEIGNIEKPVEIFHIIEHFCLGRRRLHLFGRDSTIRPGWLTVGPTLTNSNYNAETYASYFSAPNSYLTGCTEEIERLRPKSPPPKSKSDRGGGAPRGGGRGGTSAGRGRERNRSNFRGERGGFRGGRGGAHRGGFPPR

Binder: GGACUGGACUGGACUGGACU (ssRNA) [4x GGACU RNA probe]
- binding result: binds
